Test: label from the status in PepcDB records
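Note: failed if final PepcDB status was selected cloned or expressed and not failed if soluble or beyond.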

Sequence | protein production
MASRPSVRHPSHNHPLRGHKAQVEDEIICSGCDLDLLGAYFKCTKSECDYFLHKSCFDLPREIRHKSHPDHPLILLYSPQNNNSTYTCDACGEYGSGFTYNCSICQYDVHVGCVSVPETMKHDEHVHPLALIYKAPCPKDHIFTCDVCDETMPHNLWLYYCQKCDYGAHLHSCVAEEEEKSKKGGRGRGGEGGSGGNGVNRGRSSANSELAAMLKAQREMEQMQIALHLEMQRAKIDKKSRKHMLKMI | failed
MASSSSSPTPSAAAAVSPLTEEELTLTVKWNGKEYTVRICADDSVAELKRRICLLTTVLPKRQKLLYPKIGNKLSDDSLLLSSISFKPSLKMTMIGTVEDDIIVDQAESPEIVDDFELGKEEAVDVKDKEVNKQKLRRRIDQYKINLRTPCRQGKKLLVLDIDYTLFDHRSTAENPLQLMRPYLHEFLTAAYAEYDIMIWSATSMKWVELKMTELGVLNNPNYKVTALLDHLAMITVQSDTRGIFDCKPLGLIWALLPEFYNPGNTIMFDDLRRNFVMNPQNGLTIKPFRKAHANRDTDQELVKLTQYLLTIAELSDLSSLHHSRWESFSQDNVKRRRQE | failed
MASSTRSTRSTPARGKSKGASGNVTPWLWMAFALLVVMIDQFFKVVITRSFQYGESRPITSFFNLVLVYNKGAAFSFLADAGGWQRWFFTLLGVVVGAFIIWLLYRHTGQKLFCLAVSLILGGAVGNVVDRIIHGHVIDFLDFHLRNTHFPAFNVADCAITLGAILLIVDELRRVRRH | failed
MASSTTSTVTDLSAALVMAPVPLADWLIILPIALCIGAGAVLMMMRHAIRHHAAVAIAALSLLVILNAALLWKVATQGPFTMVMGRWLPPFGIAFTADLTGALLSLAAAIVALAGAIHAGADIDASGRRYGFYPFLMLLMAGVTGAFLTGDLFNLYVWFEVLLISSFGLIVLGSTREQIDGALKYAILNLIGTTLFLITVGYLYAIFGTLNMADIALKATELRGTAPLMTLASLFALAFAMKAAAFPVNFWLPASYHTPRIVVSALFGGLLTKVGIYSLLRVMVMLFPVEREELSIVIAISAALTMVLGAMGALAQNDIRRMLGYIVISGIGYMMAGIAIGTPSGVSGAIFYALHSMVLMTALYLAAGHAARLGGGFSLTSLGDLYRQAPWFSALALALFFAGSGLPPFSGFWPKAVLVKSAIDIGAWWLAAAILVSGFIATIAFGRVFLLCFWRPVTTSAGQPALQPAARPPAPSVAPLVGLTLLVVFFGLFPESLLNLSQQAAAGLGNPQAYIQSVFPQGGKP | failed
MASSVDEEALHQLYLWVDNIPLSRPKRNLSRDFSDGVLVAEVIKFYFPKMVEMHNYVPANSLQQKLSNWGHLNRKVLKRLNFSVPDDVMRKIAQCAPGVVELVLIPLRQRLEERQRRRKQ | not failed
MASTIYTCKECGSDLNLNPNDLFPPDFYFEAGNKGTLSFAAVDAEKFRFEKEDKIMPFFETLNYWGIQRKRTKIKCTSCNHLIGYIYDDGPPLTGGIGQYGFGPSQVIPRAPRYRFKTKARQDGWQYGGLTAFWN | failed
MASTVSVQPGRIRILKKGSWQPLDQTVGPVVYWMFRDQRLKDNWALIHAVDLANRTNAPVAVVFNLFDQFLDAKARQLGFMLKGLRQLHHQIDSLQIPFFLLQGDAKETIPNFLTECGASHLVTDFSPLREIRRCKDEVVKRTSDSLAIHEVDAHNVVPMWAASSKLEYSARTIRGKINKLLPDYLIEFPKLEPPKKKWTGMMDKKLVDWDSLIDKVVREGAEVPEIEWCVPGEDAGIEVLMGNKDGFLTKRLKNYSTDRNNPIKPKALSGLSPYLHFGQVSAQRCALEARKVRSTSPQAVDTFLEELIVRRELSDNFCYYQPHYDSLKGAWEWARKSLMDHASDKREHIYSLEQLEKGLTADPLWNASQLEMVYQGKMHGFMRMYWAKKILEWTKGPEEALSISIYLNNKYEIDGRDPSGYVGCMWSICGVHDQGWKERPVFGKIRYMNYAGCKRKFNVDSYISYVKSLVSVTKKKRKAEEQLTRDSVDPKITIV | failed
MASVSVSHLILFIASMAIAASVAGVFTSSIGELSNAVSEQGLDVSSDVRTDVEIISDSGSDTIYDSGANTITVHVKNTGSETLAPVPGQVDVFVDGTFASDYTVTLEPNGGNSWRPGEVVRIDINDNLSGGDHRLKLIVNGDEEVFEFNT | failed
MASWSLRTVPPKMGRVVNCQNHITAGGGRRTLMKIILTGATGFVGCSLVPLLHQQGHELTLLVRSVSKAQRLFAPGSFPQLKAIAYEATKSGDWQKVVDGQDAVINLAGEPISERWTEAYKAEIFDSRKLGTEKLVEAIAKADRKPQVMISGSAIGYYGTSETATFTESSKPGDDFLAEVCQAWENAAHQVEQLGVRLVVFRIGIVLGADGGALAKMLPPFKLFAGGPLGSGEQWFSWIDRRDLIALIDKALTDSTLRGTYNATAPNPVKMKEFCHTLGKVLARPSWLPVPDIALELLLGEGAKLVLEGQEVLPGAISKTDFQFQAPDLETSLRQILGS | failed

Reference: a protein production outcome set (Wang et al. 2014)
